Results taken from publication PMC10726430 (Cell metabolism, 2023).

Molecular target: the molecule itself
Test: native gel or EMSA

B1: NSUN2-F1 (amino acid 1–767), recombinant NSUN2 protein (enzyme, human, UniProt Q08J23-1 1-767, looked up)
chain: MGRRSRGRRLQQQQRPEDAEDGAEGGGKRGEAGWEGGYPEIVKENKLFEHYYQELKIVPEGEWGQFMDALREPLPATLRITGYKSHAKEILHCLKNKYFKELEDLEVDGQKVEVPQPLSWYPEELAWHTNLSRKILRKSPHLEKFHQFLVSETESGNISRQEAVSMIPPLLLNVRPHHKILDMCAAPGSKTTQLIEMLHADMNVPFPEGFVIANDVDNKRCYLLVHQAKRLSSPCIMVVNHDASSIPRLQIDVDGRKEILFYDRILCDVPCSGDGTMRKNIDVWKKWTTLNSLQLHGLQLRIATRGAEQLAEGGRMVYSTCSLNPIEDEAVIASLLEKSEGALELADVSNELPGLKWMPGITQWKVMTKDGQWFTDWDAVPHSRHTQIRPTMFPPKDPEKLQAMHLERCLRILPHHQNTGGFFVAVLVKKSSMPWNKRQPKLQGKSAETRESTQLSPADLTEGKPTDPSKLESPSFTGTGDTEIAHATEDLENNGSKKDGVCGPPPSKKMKLFGFKEDPFVFIPEDDPLFPPIEKFYALDPSFPRMNLLTRTTEGKKRQLYMVSKELRNVLLNNSEKMKVINTGIKVWCRNNSGEEFDCAFRLAQEGIYTLYPFINSRIITVSMEDVKILLTQENPFFRKLSSETYSQAKDLAKGSIVLKYEPDSANPDALQCPIVLCGWRGKASIRTFVPKNERLHYLRMMGLEVLGEKKKEGVILTNESAASTGQPDNDVTEGQRAGEPNSPDAEEANSPDVTAGCDPAGVHPPR
  binding result: binds
